Literature values as cited in article PMC4485553.

Biological target: human IgG1, wild type (UniProt P01857)
Experiment: not stated in this review
Conditions: pH 6

## FcRn (neonatal Fc receptor), mouse
  KD: 32 nM
